According to the supplement of paper PMC9732359:
± gives the uncertainty stated by the source.

Test: protein stability index of a GFP-peptide fusion (yeast GPS) (PSI 1-4); higher = more stable; sorted into four equal gates, so the index is relative within each strain
How it was run: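 For each peptide, the protein stability index sums the read frequency in every gate after multiplying it by the gate number. Read frequencies came from plasmids that were PCR-amplified from each gate and Illumina-sequenced, with reads assigned to strains by barcodes. The gates were four equal bins of GFP/Cherry fluorescence ratio applied to mid-log yeast in leucine-free medium carrying a pooled library of tiled 17-residue yeast protein peptides fused downstream of GFP on a Cherry-expressing plasmid.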

Sequence	protein stability index (doa10∆)	protein stability index (pdr5∆)	protein stability index (san1∆)	protein stability index (ubr1∆)
VQFGLNEETFTVPELEI [ARP9]	3.17 ± 0.076	3.02 ± 0.096	2.78 ± 0.11	3.19 ± 0.082
MVTENPQRLTVLRLATN [MCD1]	2.25 ± 0.069	2.32 ± 0.056	2.3 ± 0.062	2.38 ± 0.051
NPRKRKASVLEISPQDS [GAL11]				3.1 ± 0.13
KKRAPRAVKEIKKFAKL [RPL31A]		3.15 ± 0.21	2.86 ± 0.16	
FTQQELQKQMGIGSLTD [RPC34]	2.22 ± 0.088	2.39 ± 0.11	2.33 ± 0.17	2.48 ± 0.11
RFAPDNQVTDSSQLNKL [SIR3]	2.9 ± 0.096	3.1 ± 0.11	2.98 ± 0.12	3.04 ± 0.14
TNYEMSYWQKSYFKNSV [LIN1]	2.07 ± 0.038	2.09 ± 0.036	2.09 ± 0.061	1.99 ± 0.037
KKNDEVSKPAFSFGAKA [YJL041W/NSP1]	3.12 ± 0.14	3.02 ± 0.15	2.96 ± 0.094	3.07 ± 0.099
SKTDNIEDPNLSSNITF [YMR153W/NUP53]	2.84 ± 0.084	2.81 ± 0.08	3 ± 0.064	3.27 ± 0.073
MLKRFFPGVKGLVHDLC [SMC1]			1.95 ± 0.14	2.42 ± 0.17
ITLFVLVSVVEAFIASG [FAS2]	1.53 ± 0.048	1.41 ± 0.043	2.06 ± 0.061	1.8 ± 0.051
FLANHKDRLYCGKCHSV [RPS31]	2.38 ± 0.17	2.61 ± 0.13	2.02 ± 0.16	2.69 ± 0.082
VLLVLPFTDRSVVRGNT [COB]	3.11 ± 0.14	3.31 ± 0.15	3.52 ± 0.07	3.34 ± 0.15
LARSGLRIGRIEDVTPV [RPS14B]	1.63 ± 0.046	1.95 ± 0.052	2.25 ± 0.062	2.07 ± 0.043
MKLTDLLSLINSTHLLP [SNF12]	2.56 ± 0.052	2.57 ± 0.04	2.94 ± 0.05	2.58 ± 0.036
QPIFVAHTAGRYANKRF [RPS5]	1.55 ± 0.076	2.03 ± 0.072	1.61 ± 0.12	1.78 ± 0.069
GHPMTKSVYETPKITAA [SEC65]	2.83 ± 0.17	2.63 ± 0.084	2.03 ± 0.24	1.91 ± 0.062
DEISPELLSKYKEQIIQ [SNU114]	2.44 ± 0.079	2.57 ± 0.08	2.42 ± 0.079	2.68 ± 0.075
PMNAPTPAMIPYPGSPM [DSN1]	2.79 ± 0.044	2.76 ± 0.05	2.99 ± 0.042	3.01 ± 0.034
LSSNITFDGKPTATPSP [YMR153W/NUP53]	2.91 ± 0.057	3.03 ± 0.058	3 ± 0.043	2.91 ± 0.046
FDDLEVEELPTFHDYDM [RRP42]	2.6 ± 0.069	2.63 ± 0.064	2.79 ± 0.043	2.88 ± 0.043
KIVVLSRTGPVFDLCWN [RRP43]	2.07 ± 0.057	2.2 ± 0.048	2.91 ± 0.066	2.39 ± 0.035
ALGIKVTNPKGRLALEA [RPL32]		3.37 ± 0.18	2.87 ± 0.23	3.36 ± 0.19
RKKTEAVARLKSMNKSA [SNF2]	1.68 ± 0.074	2.17 ± 0.085	2.23 ± 0.1	2.08 ± 0.065
IKFGGLIIQKIPSLQNN [ECM29]	1.83 ± 0.066	1.72 ± 0.066	1.5 ± 0.064	1.83 ± 0.062
TRASKVLEQLSGQTPVQ [RPL11A]		3.01 ± 0.12	2.84 ± 0.074	3.06 ± 0.077
SEKRLDHFIHLRNLHMK [SNF12]	2.75 ± 0.051	2.73 ± 0.043	2.74 ± 0.052	2.62 ± 0.037

Sequence	protein stability index (doa10∆)	protein stability index (pdr5∆)	protein stability index (san1∆)	protein stability index (ubr1∆)
RKIGISIDDHPYNLNLF [RPC31]	1.75 ± 0.043	2.04 ± 0.05	1.71 ± 0.098	1.9 ± 0.044
KGTGEESNDRINKIVEI [YGR119C/NUP57]	3.66 ± 0.18	3.18 ± 0.16	2.93 ± 0.17	2.89 ± 0.15
IQDTLRTGSQSPPSSSQ [MED7]	2.81 ± 0.044	2.91 ± 0.05	2.77 ± 0.043	2.89 ± 0.032
LEPSGSYWGYKGAATGK [PRE10]	2.37 ± 0.27			2.37 ± 0.16
NQNSDMKKKLELISYRN [SRB8]	2.91 ± 0.048	3.04 ± 0.059	2.93 ± 0.051	3.08 ± 0.04
STSFKNPRRLEIKDGRS [YMR153W/NUP53]	3.06 ± 0.084	3.06 ± 0.09	2.83 ± 0.085	3.16 ± 0.041
RNNHNSNTSTSKMLDAA [SNF12]	3.01 ± 0.058	3.04 ± 0.044	3.22 ± 0.092	3.01 ± 0.048
TQYATSQKTKTIQSDLN [SMC2]	2.21 ± 0.088	2.34 ± 0.072	2.1 ± 0.11	2.85 ± 0.05
NKKDKKKEEEEQLSEED [RPN1]	3.55 ± 0.21	3.76 ± 0.23	3.28 ± 0.13	3.36 ± 0.15
ESYDAALSLHREILCYS [FAS2]	2.18 ± 0.022	2.151 ± 0.019	2.28 ± 0.028	2.28 ± 0.017
DETYKGVEEVEGEYELT [RPL5]	3.21 ± 0.16	3.43 ± 0.15	3.16 ± 0.23	2.82 ± 0.27
GGSAKPSLKFKPKAVAR [RPC53]	2.79 ± 0.11	2.7 ± 0.081	2.44 ± 0.067	2.92 ± 0.073
VSPTNVMGTPLTNMMSP [PGD1]	2.77 ± 0.1		2.92 ± 0.091	3.26 ± 0.093
MSISLESSKALADSLDR [DIS3]	2.53 ± 0.067	2.8 ± 0.074	2.52 ± 0.096	2.45 ± 0.071
ELQKIYDRHQSSSKQQS [SMC4]	3.33 ± 0.084	3.33 ± 0.095	3.35 ± 0.08	3.57 ± 0.051
NSYWLIILLGVLEDCRH [ITC1]	1.42 ± 0.061	1.53 ± 0.048	2.44 ± 0.083	2.36 ± 0.057
RAGKYELVKSYSWLLFE [YJR042W/NUP85]	1.62 ± 0.11	1.78 ± 0.08	1.18 ± 0.14	1.33 ± 0.062
IKLNGSTLLCTDLESKS [SNU114]	2.67 ± 0.06	2.73 ± 0.058	2.54 ± 0.056	2.82 ± 0.063
EAEFSLRELSCCINAAF [RRP46]	2.63 ± 0.053	2.83 ± 0.064	2.76 ± 0.047	2.97 ± 0.056
ISTHLKTICNLLISDTE [IRR1]	1.64 ± 0.05	1.86 ± 0.059	1.88 ± 0.088	1.5 ± 0.032
TELASKDNAIYNGFIDI [YCS4]	1.42 ± 0.072	1.68 ± 0.071	1.09 ± 0.14	1.48 ± 0.05
LDEDDVNADDDDFMHSE [RPB4]	2.94 ± 0.096	2.82 ± 0.088	2.53 ± 0.12	3.07 ± 0.09
NIIEKAMDYAISIENIV [RPN12]	3.15 ± 0.13	3.29 ± 0.088	2.96 ± 0.094	3.07 ± 0.071
GAKNIEITVVKPDSDIV [PRE6]	2.54 ± 0.047	2.46 ± 0.041	2.57 ± 0.052	2.67 ± 0.059
KNHFRKHWQERVKVHFD [RPL13A]	1.3 ± 0.037	1.71 ± 0.05	1.47 ± 0.083	1.54 ± 0.038
EVLVTPGLEFLDDTTIP [MCD1]	2.02 ± 0.057	2.98 ± 0.059	3.25 ± 0.037	3.08 ± 0.059
NATLTPNDSNDEKVTIL [SWI1]	3.02 ± 0.059	3.22 ± 0.061	3.1 ± 0.066	3.11 ± 0.04
